Test results: patent US20160362472A1 (published 2016)

Molecular target: CD123 on target cells (MOLM14, MOLM13, primary B-ALL blasts) (human), P26951
Assay: cell-based or functional assay

Sequence of CD123 on target cells (MOLM14, MOLM13, primary B-ALL blasts) (human), P26951 (P26951 19-378): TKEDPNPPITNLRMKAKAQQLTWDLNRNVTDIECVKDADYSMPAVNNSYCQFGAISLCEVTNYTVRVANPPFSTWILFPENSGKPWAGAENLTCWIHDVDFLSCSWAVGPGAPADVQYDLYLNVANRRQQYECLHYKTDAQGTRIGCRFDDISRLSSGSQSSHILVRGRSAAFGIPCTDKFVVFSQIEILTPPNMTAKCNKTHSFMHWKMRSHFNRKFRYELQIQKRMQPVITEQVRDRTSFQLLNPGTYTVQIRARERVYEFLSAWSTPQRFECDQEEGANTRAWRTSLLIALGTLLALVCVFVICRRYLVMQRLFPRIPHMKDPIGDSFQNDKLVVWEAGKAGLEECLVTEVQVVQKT

CD107a degranulation, 2-hr in vitro assay | Binder
80% | CAR123-3 (scFv, V domains shown) VH: QVQLVQSGAEVKKPGASVKVSCKASGYIFTGYYIHWVRQAPGQGLEWMGWINPNSGGTNYAQKFQGRVTMTRDTSISTAYMELSGLRSDDPAVYYCARDMNILATVPFDIWGQGTLVTVSS VL: DIQLTQSPSSLSASVGDRVTITCRASQSISSYLNWYQQKPGKAPKLLIYAASSLQSGVPSRFSGSGSGTDFTLTVNSLQPEDFATYYCQQGDSVPLTFGGGTKVEIK
80% | CAR123-4 (scFv, V domains shown) VH: QVQLQQSGAEVKKSGASVKVSCKASGYTFTDYYMHWLRQAPGQGLEWMGWINPNSGDTNYAQKFQGRVTLTRDTSISTVYMELSRLRSDDTAVYYCARDMNILATVPFDIWGQGTMVTVSS VL: DIQMTQSPSSLSASVGDRVTITCRASQSISSYLNWYQQKPGKAPKLLIYAASSLQSGVPSRFSGSGSGTDFTLTISSLQPEDFATYYCQQGDSVPLTFGGGTKVEIK

Molecular target: T1, CD22-FL-Fc (UniProt P20273 20-687)
T1 construct: domain: full-length with all 7 external domains; also called CD22 full length-Fc; CD22 full-length with all 7 external domains; not shown: Fc part not described
Assay: NFAT-luciferase activation of CAR JNL cells on plates coated with CD22-FL-Fc, CD22-D567-Fc or CD22-D67
Method: (§1) Briefly the experiments were performed as follows. A lentiviral vector (pELPS) carrying a nucleic acid, encoding a CD22 CAR with a CD22-binding scFv domain was introduced by electroporation into a Jurkat T cell line modified to express luciferase under the control of an NFAT response element (JNL). The cells were cultured and allowed to express the CAR construct. The electroporated cells were applied to a plate coated with the target antigen (CD22). Detection of luciferase signal in the coated plate was indicative of binding activity of the CD22 CAR to its antigen, leading to activation of the T cells and expression of luciferase.
Three different target proteins (CD22-FL-Fc, CD22-D567-Fc, and CD22-D67) were used to coat the tissue culture plates; a negative control (Fc) was also included. A mesothelin binding CAR (Meso-G07) was used as a negative control. […] Domain mapping was performed on CD22 binding domains. Three different forms of antigens were used: CD22 full-length with all 7 external domains, Domain567 (in which domains 1-4 were deleted) and Domain67 (in which domains 1-5 were deleted).

binding result | Binder
binds | CAR22-62 (scFv, scFv domain of a CAR expressed on JNL cells; also called CD22-62) scFv: EVQLQQSGPGLVKPSQTLSLTCAISGDSVLSNSDTWNWIRQSPSRGLEWLGRTYHRSTWYDDYASSVRGRVSINVDTSKNQYSLQLNAVTPEDTGVYYCARDRLQDGNSWSDAFDVWGQGTMVTVSSGGGGSGGGGSGGGGSQSALTQPASVSGSPGQSITISCTGTSSDVGGYNYVSWYQQHPGKAPKLMIYDVSNRPSGVSNRFSGSKSGNTASLTISGLQAEDEADYYCSSYTSSSTLYVFGTGTKVTVLG
binds | CAR22-60 (scFv, scFv domain of a CAR expressed on JNL cells; also called CD22-60) scFv: EVQLQQSGPGLVKPSQTLSLTCAISGDSVLSNSDTWNWIRQSPSRGLEWLGRTYHRSTWYDDYASSVRGRVSINVDTSKNQYSLQLNAVTPEDTGVYYCARDRLQDGNSWSDAFDVWGQGTMVTVSSGGGGSGGGGSGSGGSQSALTQPASVSGSPGQSITFSCTGTSSDIGGYNYVSWYQQHPGKAPKLMIYEVSNRPSGVSNRFSGTKSGNTASLTISGLQAEDEADYYCSSYTSSSTLYVFGTGTKLTVLG
binds | CAR22-63 (scFv, scFv domain of a CAR expressed on JNL cells; also called CD22-63) scFv: EVQLQQSGPGLVKPSQTLSLTCAISGDSVLSNSDTWNWIRQSPSRGLEWLGRTYHRSTWYDDYASSVRGRVSINVDTSKNQYSLQLNAVTPEDTGVYYCARDRLQDGNSWSDAFDVWGQGTMVTVSSGGGGSGGGGSGGGGSQSALTQPASVSGSPGQSITISCTGTSSDVGGYNYVSWYQQHPGKAPKLMIYEVSNRPSGVSNRFSGSKSGNTASLTISGLQAEDEADYYCSSYTSSSTLYIFGTGTKVTVLG
binds | CAR22-59 (scFv, scFv domain of a CAR expressed on JNL cells; also called CD22-59) scFv: EVQLQQSGPGLVKPSQTLSLTCAISGDSVLSNSDTWNWIRQSPSRGLEWLGRTYHRSTWYDDYASSVRGRVSINVDTSKNQYSLQLNAVTPEDTGVYYCARDRLQDGNSWSDAFDVWGQGTMVTVSSGGGGSGGGGSGGGGSQSALTQPASVSGSPGQSITISCTGSSSDIGGFNYVSWYQQHAGEAPKLMIYEVTNRPSGVSDRFSGSKSDNTASLTISGLQAEDEADYYCSSYASGSPLYVFGTGTKVTVLG
binds | CAR22-61 (scFv, scFv domain of a CAR expressed on JNL cells; also called CD22-61) scFv: QVQLQESGPGLVKPSQTLSLTCAISGDSVLSNSDTWNWIRQSPSRGLEWLGRTYHRSTWYDDYASSVRGRVSINVDTSKNQYSLQLNAVTPEDTGVYYCARDRLQDGNSWSDAFDVWGQGTMVTVSSGGGGSGGGGSGSGGSQSALTQPASVSGSPGQSITISCTGTSSDVGGYNYVSWYQQHPGKAPKLMIYEVSNRPSGVSNRFSGSKSGNTASLTISGLQAEDEADYYCSSYTSSSTLYVFGTGTKVTVLG
binds | CAR22-58 (scFv, scFv domain of a CAR expressed on JNL cells; also called CD22-58) scFv: EVQLQQSGPGLVNPSQTLSITCAISGDSVSSNSAAWNWIRQSPSRGLEWLGRTFYRSKWYNDYAVSVKGRITISPDTSKNQFSLQLNSVTPEDTAVYYCAGGDYYYGLDVWGQGTTVTVSSGGGGSGGGGSGGGGSQSALTQPASVSGSPGQSITISCTGSSSDVGGYNSVSWYQQHPGKAPKLMIYEVINRPSGVSHRFSGSKSGNTASLTISGLQAEDEADYYCSSYTSSSTYVFGTGTKVTVLG
binds | CAR22-12 (scFv, scFv domain of a CAR on T cells or JNL cells; also called CD22 CAR clone 12; hCD22-12) scFv: EVQLQQSGPGLVKPSQTLSLTCAISGDSVLSNSDTWNWIRQSPSRGLEWLGRTYHRSTWYDDYASSVRGRVSINVDTSKNQYSLQLNAVTPEDTGVYYCARDRLQDGNSWSDAFDVWGQGTMVTVSSGGGGSGGGGSGGGGSQSALTQPASASGSPGQSVTISCTGTSSDVGGYNYVSWYQQHPGKAPKLMIYDVSNRPSGVSNRFSGSKSGNTASLTISGLQAEDEADYYCSSYTSSSTLYVFGTGTQLTVL
binds | CAR 22-57 (scFv, scFv domain of a CAR expressed on JNL cells; also called CD22-57) scFv: EVQLQQSGPGLVKPSQTLSLTCAISGDSVSNNNAAWNWIRQSPSRGLEWLGRTYHRSTWYNDYVGSVKSRITINPDTSKNQFSLQLNSVTPEDTAVYYCARETDYGDYGAFDIWGQGTTVTVSSGGGGSGGGGSGGGGSQSALTQPASVSGSPGQSITISCTGSRNDIGAYESVSWYQQHPGNAPKLIIHGVNNRPSGVFDRFSVSQSGNTASLTISGLQAEDEADYYCSSHTTTSTLYVFGTGTKVTVLG
binds | CAR22-53 (scFv, scFv domain of a CAR on JNL cells or T cells; also called CD22-53; hCD22-53) scFv: EVQLQQSGPGLVKPSQTLSLTCAISGDSVSSNSAAWNWIRQSPSRGLEWLGRTYYRSKWYSDYAVSVKSRITINPDTSKNQFSLQLNSVTPEDTAVYYCARDPYDFWSGYPDAFDIWGQGTMVTVSSGGGGSGGGGSGGGGSQSALTQPASVSGSPGQSITISCTGTSSDVGGYNYVSWYQQHPGKAPKVIISEVNNRPSGVSHRFSGSKSGNTASLTISGLQAEDEADYFCSSYTSGRTLYVFGTGSKVTVLG

Molecular target: T1, CD22-FL-Fc
Assay: NFAT-luciferase activation of CAR JNL cells on plates coated with CD22 full length-Fc, CD22 D567-Fc or Fc only
Method: as §1
CAR constructs containing these scFvs were tested for activity in an NFAT assay as described above. […] The bars in the figure represent, from left to right, CD22 full length-Fc; CD22 D567-Fc; and an Fc only negative control used for coating of the plates.

binding result | Binder
binds | CAR22-65 (scFv, also called CD22-65) scFv: EVQLQQSGPGLVKPSQTLSLTCAISGDSMLSNSDTWNWIRQSPSRGLEWLGRTYHRSTWYDDYASSVRGRVSINVDTSKNQYSLQLNAVTPEDTGVYYCARVRLQDGNSWSDAFDVWGQGTMVTVSSGGGGSGGGGSGGGGSQSALTQPASASGSPGQSVTISCTGTSSDVGGYNYVSWYQQHPGKAPKLMIYDVSNRPSGVSNRFSGSKSGNTASLTISGLQAEDEADYYCSSYTSSSTLYVFGTGTQLTVL
binds | CAR22-64 (scFv, also called CD22-64) scFv: EVQLQQSGPGLVKPSQTLPLTCAISGDSVLSNSDTWNWIRQSPSRGLEWLGRTYHRSTWYDDYASSVRGRVSINVDTSKNQYSLQLNAVTPEDTGVYYCARVRLQDGNSWSDAFDVWGQGTMVTVSSGGGGSGGGGSGGGGPQSALTQPASASGSPGQSVTISCTGTSSDVGGYNYVSWYQQHPGKAPKLMIYDVSNRPSGVSNRFSGSKSGNTASLTISGLQAEDEADYYCSSYTSSSTLYVFGTGTQLTVL
